Experimental data from the supplement of paper PMC9112550, “Optimization of the antimicrobial peptide Bac7 by deep mutational scanning” (BMC Biology, 2022).

Tested on: Escherichia coli TOP10
Assay: shrunken log2 fold change of peptide-encoding DNA abundance (4.5 h post-induction vs induction); higher = less antimicrobial activity (less host growth inhibition)
Details: time post-induction: 4.5 h; library: site-saturation at positions 5, 18, 19, 20
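Also: peptides expressed intracellularly from a pBAD plasmid library in pooled LB shake-flask culture, induced with 0.3% L-arabinose, DNA abundance read by NGS, three biological replicates, DESeq2 with apeglm shrinkage.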

In order of falling “shrunken log2 fold change” value:
1. RRIRGRPPRLPRPRPRPLATPRP  2.95
2. RRIRMRPPRLPRPRPRPRSAPRP  1.36
3. RRIRNRPPRLPRPRPRPRGWPRP  0.962
4. RRIRDRPPRLPRPRPRPMMHPRP  0.937
5. RRIRKRPPRLPRPRPRPMRGPRP  0.874
6. RRIRPRPPRLPRPRPRPPLPPRP  0.814
7. RRIRKRPPRLPRPRPRPADDPRP  0.799
8. RRIRGRPPRLPRPRPRPCCGPRP  0.781
9. RRIRARPPRLPRPRPRPAPEPRP  0.777
10. RRIRQRPPRLPRPRPRPAMRPRP  0.718
11. RRIRVRPPRLPRPRPRPMRAPRP  0.71
12. RRIRMRPPRLPRPRPRPPIQPRP  0.693
13. RRIRGRPPRLPRPRPRPCFCPRP  0.609
14. RRIRRRPPRLPRPRPRPHADPRP  0.573
15. RRIRDRPPRLPRPRPRPVGEPRP  0.55
16. RRIRDRPPRLPRPRPRPDWAPRP  0.534
17. RRIRKRPPRLPRPRPRPDVPPRP  0.501
18. RRIRSRPPRLPRPRPRPPVAPRP  0.403
19. RRIRPRPPRLPRPRPRPDSWPRP  0.392
20. RRIRKRPPRLPRPRPRPRAWPRP  0.389
21. RRIRWRPPRLPRPRPRPPWSPRP  0.378
22. RRIRFRPPRLPRPRPRPRAEPRP  0.363
23. RRIRTRPPRLPRPRPRPGGVPRP  0.346
24. RRIRVRPPRLPRPRPRPRRPPRP  0.34
25. RRIRKRPPRLPRPRPRPFCKPRP  0.326
26. RRIRPRPPRLPRPRPRPERPPRP  0.309
27. RRIRWRPPRLPRPRPRPYATPRP  0.289
28. RRIRRRPPRLPRPRPRPQMPPRP  0.283
29. RRIRCRPPRLPRPRPRPRPDPRP  0.276
30. RRIRFRPPRLPRPRPRPPNDPRP  0.273
31. RRIRERPPRLPRPRPRPTLAPRP  0.269
32. RRIRMRPPRLPRPRPRPRFQPRP  0.268
33. RRIRSRPPRLPRPRPRPGLSPRP  0.245
34. RRIRDRPPRLPRPRPRPWDFPRP  0.238
35. RRIRNRPPRLPRPRPRPELYPRP  0.23
36. RRIRGRPPRLPRPRPRPDGYPRP  0.222
37. RRIRERPPRLPRPRPRPVGGPRP  0.21
38. RRIRPRPPRLPRPRPRPETVPRP  0.207
39. RRIRDRPPRLPRPRPRPDMDPRP  0.2
40. RRIRRRPPRLPRPRPRPEQMPRP  0.19
41. RRIRPRPPRLPRPRPRPAFHPRP  0.189
42. RRIRDRPPRLPRPRPRPLVLPRP  0.176
43. RRIRARPPRLPRPRPRPFEHPRP  0.172
44. RRIRLRPPRLPRPRPRPGMWPRP  0.164
45. RRIRARPPRLPRPRPRPSICPRP  0.154
46. RRIRSRPPRLPRPRPRPNQGPRP  0.153
47. RRIRKRPPRLPRPRPRPSQWPRP  0.144
48. RRIRWRPPRLPRPRPRPTKFPRP  0.142
49. RRIRHRPPRLPRPRPRPMVFPRP  0.14
50. RRIRGRPPRLPRPRPRPPIYPRP  0.132
51. RRIRWRPPRLPRPRPRPTLPPRP  0.128
52. RRIRRRPPRLPRPRPRPAKWPRP  0.123
53. RRIRYRPPRLPRPRPRPDVAPRP  0.105
54. RRIRIRPPRLPRPRPRPWTFPRP  0.0921
55. RRIRKRPPRLPRPRPRPWLTPRP  0.0883
56. RRIRERPPRLPRPRPRPEIYPRP  0.0872
57. RRIRVRPPRLPRPRPRPPCQPRP  0.0844
58. RRIRERPPRLPRPRPRPTGIPRP  0.0836
59. RRIRHRPPRLPRPRPRPPFWPRP  0.0835
60. RRIRPRPPRLPRPRPRPGWCPRP  0.072
61. RRIRHRPPRLPRPRPRPGWFPRP  0.0663
62. RRIRIRPPRLPRPRPRPEYTPRP  0.0624
63. RRIRVRPPRLPRPRPRPPWFPRP  0.0493
64. RRIRQRPPRLPRPRPRPMVLPRP  0.0309
65. RRIRTRPPRLPRPRPRPVHYPRP  0.0226
66. RRIRNRPPRLPRPRPRPIENPRP  0.0211
67. RRIRVRPPRLPRPRPRPIWDPRP  0.0206
68. RRIRSRPPRLPRPRPRPASKPRP  0.019
69. RRIRRRPPRLPRPRPRPGQLPRP  0.0163
70. RRIRFRPPRLPRPRPRPQFQPRP  0.0151
71. RRIRVRPPRLPRPRPRPMPVPRP  0.00602
72. RRIRERPPRLPRPRPRPIRQPRP  0.00357
73. RRIRLRPPRLPRPRPRPNGDPRP  -0.00192
74. RRIRQRPPRLPRPRPRPGWQPRP  -0.00211
75. RRIRWRPPRLPRPRPRPHCSPRP  -0.00908
76. RRIRARPPRLPRPRPRPKNSPRP  -0.0129
77. RRIRERPPRLPRPRPRPDHMPRP  -0.0199
78. RRIRYRPPRLPRPRPRPYSVPRP  -0.0202
79. RRIRDRPPRLPRPRPRPYLGPRP  -0.021
80. RRIRERPPRLPRPRPRPAVKPRP  -0.0221
81. RRIRPRPPRLPRPRPRPAKHPRP  -0.023
82. RRIRWRPPRLPRPRPRPSITPRP  -0.0237
83. RRIRARPPRLPRPRPRPEESPRP  -0.024
84. RRIRDRPPRLPRPRPRPAMYPRP  -0.0257
85. RRIRPRPPRLPRPRPRPVELPRP  -0.0271
86. RRIRSRPPRLPRPRPRPWTVPRP  -0.0297
87. RRIRMRPPRLPRPRPRPEVYPRP  -0.0346
88. RRIRERPPRLPRPRPRPHVSPRP  -0.0346
89. RRIRWRPPRLPRPRPRPFQCPRP  -0.0406
90. RRIRVRPPRLPRPRPRPMQRPRP  -0.0413
91. RRIRTRPPRLPRPRPRPWVVPRP  -0.0414
92. RRIRKRPPRLPRPRPRPFSKPRP  -0.0535
93. RRIRCRPPRLPRPRPRPIRLPRP  -0.0542
94. RRIRPRPPRLPRPRPRPEHMPRP  -0.0558
95. RRIRNRPPRLPRPRPRPLMHPRP  -0.0721
96. RRIRQRPPRLPRPRPRPDIDPRP  -0.078
97. RRIRFRPPRLPRPRPRPAALPRP  -0.0867
98. RRIRGRPPRLPRPRPRPNKYPRP  -0.0952
99. RRIRKRPPRLPRPRPRPMGKPRP  -0.0982
100. RRIRVRPPRLPRPRPRPKTLPRP  -0.0985
101. RRIRRRPPRLPRPRPRPDVHPRP  -0.101
102. RRIRERPPRLPRPRPRPDPQPRP  -0.102
103. RRIRRRPPRLPRPRPRPNTVPRP  -0.107
104. RRIRYRPPRLPRPRPRPYVTPRP  -0.115
105. RRIRERPPRLPRPRPRPHMEPRP  -0.118
106. RRIRKRPPRLPRPRPRPETQPRP  -0.119
107. RRIRSRPPRLPRPRPRPQKMPRP  -0.122
108. RRIRGRPPRLPRPRPRPWSVPRP  -0.131
109. RRIRERPPRLPRPRPRPTLLPRP  -0.137
110. RRIRRRPPRLPRPRPRPWFKPRP  -0.139
111. RRIRCRPPRLPRPRPRPQHQPRP  -0.145
112. RRIRWRPPRLPRPRPRPENIPRP  -0.148
113. RRIRIRPPRLPRPRPRPHSPPRP  -0.161
114. RRIRIRPPRLPRPRPRPGNLPRP  -0.175
115. RRIRCRPPRLPRPRPRPCSVPRP  -0.177
116. RRIRWRPPRLPRPRPRPFAFPRP  -0.195
117. RRIRQRPPRLPRPRPRPTMFPRP  -0.208
118. RRIRDRPPRLPRPRPRPHWYPRP  -0.212
119. RRIRDRPPRLPRPRPRPNPHPRP  -0.247
120. RRIRARPPRLPRPRPRPFCKPRP  -0.25
121. RRIRNRPPRLPRPRPRPMYLPRP  -0.251
122. RRIRPRPPRLPRPRPRPDYLPRP  -0.259
123. RRIRVRPPRLPRPRPRPMCNPRP  -0.263
124. RRIRPRPPRLPRPRPRPHHDPRP  -0.266
125. RRIRCRPPRLPRPRPRPYGNPRP  -0.277
126. RRIRFRPPRLPRPRPRPHYAPRP  -0.285
127. RRIRSRPPRLPRPRPRPHAKPRP  -0.288
128. RRIRTRPPRLPRPRPRPCTLPRP  -0.314
129. RRIRSRPPRLPRPRPRPVKDPRP  -0.315
130. RRIRLRPPRLPRPRPRPLQYPRP  -0.316
131. RRIRERPPRLPRPRPRPSVEPRP  -0.326
132. RRIRDRPPRLPRPRPRPNQVPRP  -0.329
133. RRIRTRPPRLPRPRPRPLYVPRP  -0.4
134. RRIRCRPPRLPRPRPRPSNTPRP  -0.417
135. RRIRLRPPRLPRPRPRPCVLPRP  -0.44
136. RRIRFRPPRLPRPRPRPGHVPRP  -0.447
137. RRIRQRPPRLPRPRPRPYFSPRP  -0.451
138. RRIRQRPPRLPRPRPRPSPHPRP  -0.511
139. RRIRIRPPRLPRPRPRPYTEPRP  -0.512
140. RRIRTRPPRLPRPRPRPCIDPRP  -0.519
141. RRIRQRPPRLPRPRPRPDKLPRP  -0.522
142. RRIRHRPPRLPRPRPRPNKIPRP  -0.622
143. RRIRWRPPRLPRPRPRPSYTPRP  -0.656
144. RRIRQRPPRLPRPRPRPYIGPRP  -0.681
145. RRIRIRPPRLPRPRPRPIPMPRP  -0.705
146. RRIRHRPPRLPRPRPRPQNNPRP  -0.731
147. RRIRERPPRLPRPRPRPSNKPRP  -0.811
148. RRIRYRPPRLPRPRPRPWDEPRP  -0.999
149. RRIRYRPPRLPRPRPRPSYLPRP  -1.08
150. RRIRSRPPRLPRPRPRPYFVPRP  -1.14
